The values that follow come from US20210324080A1 (JIANGSU HUAIYU PHARMACEUTICAL, published 2021).

The target of assay [1] is T1, monkey CTLA-4, full length, on transfected HEK293 cells (monkey).
T1 construct: whole, on cells; also called cCTLA-4; HEK293-cCTLA-4
Briefly: FACS, monkey CTLA-4 expressing cells. An excerpt: The pIRES plasmid with the monkey-derived CTLA-4 full-length gene was transfected into the HEK293 cell line to construct a HEK293 stable cell line containing monkey CTLA-4 (herein referred to as HEK293-cCTLA-4 stable cell line), wherein the database accession number of the monkey CTLA-4 nucleotide sequence is XM_005574014.1. The HEK293-hCTLA-4 stable cell line and HEK293-cCTLA-4 stable cell line were expanded in a T-75 cell culture flask to a 90% confluence. The medium was aspirated, and the cells were washed with HBSS buffer (Hanks Balanced Salt Solution, purchased from Invitrogen) twice, then treated with an enzyme-free cell dissociation fluid (Versene solution, purchased from Life technology) and the cells were collected. The cells were washed with HBSS buffer twice. After counted, the cells were diluted with HBSS buffer to 2×10⁶ cells per ml, added with 1% goat serum blocking solution, wherein the percentage was the mass percantage. Cells were incubated on ice for 30 minutes, then washed twice with HBSS buffer by centrifugation. The collected cells were suspended in the FACS buffer (HBSS containing 1% BSA, wherein the percentage was the mass percantage) to 2×10⁶ cells/ml, added as 100 microliters per well to a 96-well FACS reaction plate, added with 100 microliters per well of the purified CTLA-4 antibody sample to be tested, incubated on ice for 2 hours. The plate was washed twice with the FACS buffer by centrifugation, added with 100 microliters of fluorescent (Alexa 488)-labeled secondary antibodies (purchased from Invitrogen) per well, and incubated on ice for 1 hour. The plate was washed 3 times with FACS buffer by centrifugation, added with 100 μl fixative solution [4% (v/v) Paraformaldehyde] per well to suspend the cells. 10 minutes later, it was washed 2 times with FACS buffer by centrifugation. The cells were suspended with 100 microliters of FACS buffer, FACS (FACS Calibur, purchased from BD) was used for detection and the results were analyzed.
Background: Flow cytometry measures light scatter and fluorescence of single cells or particles in a stream.

The target in assay [2] is T2, CTLA-4-hFc (immunogen A; hFc-labeled CTLA-4 extracellular domain protein) (human, UniProt P16410 36-161).
T2 construct: range 36-161; Made in HEK293 cells, purified on protein A; also called CLTA-4-hFc; CTLA-4 protein; not shown: human IgG Fc fragment (hFc) of the pCpC vector
T2 sequence (looked up): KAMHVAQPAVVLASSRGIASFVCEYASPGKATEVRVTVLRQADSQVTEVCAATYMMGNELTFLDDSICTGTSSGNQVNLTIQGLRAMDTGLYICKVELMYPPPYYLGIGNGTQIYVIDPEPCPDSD
Briefly: receptor-ligand blocking assay: CTLA-4 protein, antibody titrated, blocked ligand B7.1, inhibition (%). As to the method:
CTLA-4 extracellular domain protein (CTLA-4-hFc) was diluted with PBS to a final concentration of 1.0 μg/mL, and then added to a 96-well ELISA plate as 100 μl per well. The plate was covered with a plastic film and incubated overnight at 4° C. The plate was washed twice with plate washing solution [PBS containing 0.01% (v/v) Tween 20] on the next day, and added with blocking solution [PBS containing 0.01% (v/v) Tween 20 and 1% (w/w) BSA] and blocked at room temperature for 2 hours. […] After 2 hours, the plate was washed 3 times with a plate washing solution [PBS containing 0.01% (v/v) Tween 20]. HRP (horseradish peroxidase) labeled avidin diluent (purchased from Sigma) was added 100 microliters per well, and after the plate was incubated for 2 hours at 37° C., it was washed with plate washing solution [PBS containing 0.01% (v/v) Tween 20] for 3 times. […] TMB substrate was added to each well. After incubated at room temperature for 30 minutes, the plate was added with […] stop solution (1.0N HCl) to each well. An ELISA plate reader (SpectraMax 384plus, Molecular Device) was used to read the A450 nm value.

B1: 31C12F3 fully human CTLA-4 antibody (human IgG1, kappa) (antibody, V domains shown)
VH: QVQLVESGGGVVQPGRSLILSCAASGFTFSSYGMHWVRQAPGKGLEWVAVVWYDGSNKYYADSVKGRFTISRDNSKNTLYLQMSSLRAEDTAVYYCARGGIVVPGLFEYWGQGSLVTVSS
VL: DIQMTQSPSSLSASVGDRVAITCRTSQSISNLLNWYQQKPGKAPELLIYAPSSFQSGVPSRFRGSGSGTDFTLTISSLQPEDFATYYCQQSYSTPFTFGPGTKVDIK
notes: also called mAb010
With B1, in assay [1], the “MFI at 0.000128 nM” value was found to be 2, the “MFI at 0.0128 nM” value is 34, the “MFI at 0.064 nM” value was found to be 98 and the “MFI at 0.32 nM” value was 261. In addition, in assay [1], the “MFI at 1.6 nM” value stood at 455, the “MFI at 8 nM” value was 654, the “MFI at 40 nM” value is 712 and the “MFI at 200 nM” value was 668.

B2: 92C8B6 fully human CTLA-4 antibody (human IgG1, kappa) (antibody, V domains shown)
VH: QVQLVESGGGVVQPGRSLRLSCAASGFTFSNFGMHWVRQAPGKGLEWVAVIWYDGSNKYYADSVKGRFTISRDNSKNTLFLQMNGLRAEDTAVYYCAKGGILMAGTLDYWGQGTLVTVSS
VL: DIQMTQSPSSLSASVGDRVTITCRASQSVSTYLNWYQQKPGKAPKLLIYAASSFQSGVPSRFSGSGSGTDFTLTISSLQPEDFATYFCQQSYSTPFTFGPGTKVDIK
notes: also called mAb42; mAb042
Regarding B2, in assay [1], the “MFI at 0.000128 nM” value is 2, the “MFI at 0.0128 nM” value came out at 22, the “MFI at 0.064 nM” value was found to be 68 and the “MFI at 0.32 nM” value turned out to be 208. For the same molecule, in assay [1], the “MFI at 1.6 nM” value was 465, the “MFI at 8 nM” value was 722, the “MFI at 40 nM” value is 800 and the “MFI at 200 nM” value was determined as 711. For the same molecule, the “IC50 (read off the curve)” value in assay [2] lay within 1 to 2 nM.

B3: 40C4C6 fully human CTLA-4 antibody (human IgG1, kappa) (antibody, V domains shown)
VH: QVQLVESGGGVVQPGRSLRLSCAASGFTFSSYGMHWVRQAPGKGLEWVAVIWYDGRNKYYADSVKGRFTISRDNSKNTLYLQMNSLRAEDTAVYYCARASGSYSYYFDYWGQGTLVTVSS
VL: DIQMTQSPSSLSASVGGRVTITCRASQSISSFLNWYQHELGKAPKLLIYGASSLQSGVPSRFSGSGSGTDFTLTISSLQPEDFATYYCQQTYSTPFTFGPGTKVDIK
notes: also called mAb09; mAb009
For the molecule B3, in assay [1], the “MFI at 0.000128 nM” value was determined as 2, the “MFI at 0.0128 nM” value is 23, the “MFI at 0.064 nM” value stood at 69 and the “MFI at 0.32 nM” value was 219. Further, in assay [1], the “MFI at 1.6 nM” value was found to be 421, the “MFI at 8 nM” value was found to be 619, the “MFI at 40 nM” value was found to be 626 and the “MFI at 200 nM” value worked out at 643.

B4: 97A8D1 fully human CTLA-4 antibody (human IgG1, kappa) (antibody, V domains shown)
VH: QVQLVESGGGVVQPGRSLRLSCVASGFTFNNYGMNWVRQAPGKGLEWVAVIWYGGRNKFYADSVKGRFTISRDNSKNTLYLEMNSLRAEDTAVYYCARADWGGWFDPWGQGTLVTVSS
VL: EIVLTQSPGTLSLSPGERATLSCRASQSVSSTYLAWYQQKPGQAPRLLIHGAFSRATGIPDRFSGSGSGPDFTLTISRLEPEDFAVYYCQQYGTSPFTFGPGTKVDIK
notes: also called mAb49; mAb049
On to B4, for which, in assay [1], the “MFI at 0.000128 nM” value worked out at 2, the “MFI at 0.0128 nM” value turned out to be 23, the “MFI at 0.064 nM” value stood at 67 and the “MFI at 0.32 nM” value amounted to 225. Moreover, in assay [1], the “MFI at 1.6 nM” value turned out to be 513, the “MFI at 8 nM” value was 754, the “MFI at 40 nM” value worked out at 910 and the “MFI at 200 nM” value turned out to be 831. In assay [2], the “IC50 (read off the curve)” value was 1 to 2 nM.
